Molecular target: DYK-tagged transmembrane serine protease 13 (TMPRSS13) stably expressed in HEK cells (HEK-T) (human) (UniProt Q9BYE2)
Test: co-IP; competition: 20 µg recombinant spike S2 fragment added to HEK-T cells 2 h before IL4I1; read-out IL4I1 co-precipitated with TMPRSS13-DYK

UniProt Q9BYE2, sequence (Q9BYE2 other isoform, or with tags, fused parts or gaps): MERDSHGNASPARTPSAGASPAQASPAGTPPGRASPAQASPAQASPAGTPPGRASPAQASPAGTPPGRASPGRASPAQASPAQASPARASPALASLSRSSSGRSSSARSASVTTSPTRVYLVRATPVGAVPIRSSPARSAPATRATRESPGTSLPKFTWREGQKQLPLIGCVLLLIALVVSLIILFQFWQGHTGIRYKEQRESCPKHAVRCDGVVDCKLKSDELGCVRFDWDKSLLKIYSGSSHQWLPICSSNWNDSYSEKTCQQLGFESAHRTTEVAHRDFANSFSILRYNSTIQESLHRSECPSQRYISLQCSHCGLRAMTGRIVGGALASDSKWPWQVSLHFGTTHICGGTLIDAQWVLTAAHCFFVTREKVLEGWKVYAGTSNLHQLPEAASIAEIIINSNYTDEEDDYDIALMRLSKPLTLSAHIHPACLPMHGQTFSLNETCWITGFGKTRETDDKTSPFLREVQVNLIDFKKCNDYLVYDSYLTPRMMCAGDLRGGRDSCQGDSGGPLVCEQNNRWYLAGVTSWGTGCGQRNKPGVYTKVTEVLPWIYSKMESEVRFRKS

## recombinant S2 fragment of the SARS-CoV-2 spike protein (domain or fragment)
  percent decrease of IL4I1 binding to TMPRSS13 with 20 µg S2 per 80 µg IL4I1: 50%

Reference: article PMC9483092
